According to US20060165695A1 (Kyowa Kirin, published 2006):

Tests used:
[1] = biological target: T1, human insulin-like growth factor II (hIGF-II) (human, UniProt P01344 25-91); assay: SPR (Biacore 2000), hIGF-II amine-coupled to CM-5 chip, antibody as analyte, 25 °C; KA=Kass/Kdiss
T1 construct: In the ELISA it was immobilised as a conjugate with methylated BSA; In SPR it was amine-coupled to the chip; also called human IGF-II; methylated BSA-hIGF-II (immobilised conjugate)
Protocol: (§1) In order to analyze binding activity of the anti-hIGF antibody KM1468 to an antigen hIGF-I or hIGF-II, binding strengths of the anti-hIGF antibody KM1468, a commercially available anti-hIGF-I antibody sm1.2 and a commercially available anti-hIGF-II antibody S1F2 to hIGF-I and hIGF-II were measured in the following manner using the biosensor Biacore 2000 (manufactured by BIACORE) use of a surface plasmon resonance. HBS-EP (10 mM HEPES, 150 mM NaCl, 3 mM EDTA, 0.005% Tween 20, pH 7.4) (manufactured by BIACORE) was used for the dilution of analytes and as the reaction buffer.
(§2) The reaction was carried out at 25° C. Association rate constant Kass and dissociation constant Kdiss were calculated from the binding reaction curves at respective concentrations, and the binding constant KA (M⁻¹) of each of these antibodies was calculated. The binding constant KA is calculated by KA=Kass/Kdiss.

[2] = biological target: T1, human insulin-like growth factor II …; assay: SPR (Biacore 2000), ratio of KA values
Protocol: as §1, §2

[3] = biological target: T2, human insulin-like growth factor I (hIGF-I) (human, UniProt P05019 49-118); assay: SPR (Biacore 2000), ratio of KA values
T2 construct: mature; In the ELISAs it was immobilised as a conjugate with methylated BSA; In SPR it was amine-coupled to the chip; also called human IGF-I; recombinant hIGF-I
Protocol: as §1, §2

[4] = biological target: T2, human insulin-like growth factor I …; assay: SPR (Biacore 2000), hIGF-I amine-coupled to CM-5 chip, antibody as analyte, 25 °C; KA=Kass/Kdiss
Protocol: as §1, §2

[5] = biological target: T3, hIGF-I partial peptide p61-70 (human); assay: competitive ELISA: KM1468 (4.0 µg/ml) on immobilised methylated BSA-hIGF-I, peptide as competitor
T3 peptide: CAPLKPAKSA

[6] = biological target: T4, hIGF-I partial peptide p41-56C (human); assay: as above
T4 peptide: CTGIVDECCFRSCDLRR

[7] = biological target: T5, hIGF-I partial peptide p1-18 (human); assay: as above
T5 peptide: GPETLSGAELVDALQFVC

[8] = biological target: T6, hIGF-I partial peptide p36-47 (human); assay: as above
T6 peptide: RRAPQTGIVDEC

[9] = biological target: T7, hIGF-I partial peptide p14-30 (human); assay: as above
T7 peptide: CLQFVAGDRGFYFNKPTG

[10] = biological target: T8, hIGF-I partial peptide p24-35 (human); assay: as above
T8 peptide: CYFNKPTGYGSSS

[11] = biological target: T9, hIGF-I partial peptide p53-61 (human); assay: as above
T9 peptide: DLRRLEMYC

[12] = biological target: T10, hIGF-I partial peptide p52-70 (human); assay: as above
T10 peptide: CDLRRLEMYAAPLKPAKSA

[13] = biological target: T11, hIGF-I partial peptide p41-56 (human); assay: as above
T11 peptide: CTGIVDEAAFRSADLRR

[14] = biological target: T12, hIGF-I partial peptide p29-41 (human); assay: as above
T12 peptide: CTGYGSSSRRAPQT

[15] = biological target: T13, human insulin (manufactured by Wako Pure Chemical Industries) (human, UniProt P01308 25-54; P01308 90-110); assay: competitive ELISA: KM1468 (0.6 µg/ml) on immobilised methylated BSA-hIGF-I or methylated BSA-hIGF-II, insulin as competitor
T13 construct: Bought reagent
Source text: Cross reactivity of the purified anti-hIGF antibody KM1468 with hIGF-II and human insulin was examined by the competitive ELISA shown below. As the antigens, hIGF-I (manufactured by Pepro Tech), hIGF-II (manufactured by Pepro Tech) and human insulin (manufactured Wako Pure Chemical Industries) were used.
The methylated BSA-hIGF-I antigen prepared in Example 1(1) or a methylated BSA-hIGF-II antigen prepared in the same manner as in Example 1(1) was immobilized on a plate in accordance with the method shown in Example 1(4), at a concentration of 0.1 μg/ml in the case of the methylated BSA-hIGF-I antigen, or at a concentration of 1.0 μg/ml in the case of the methylated BSA-hIGF-II antigen, KM1468 diluted to 0.6 μg/ml was dispensed therein in 25 μl/well portions, and then each of 4-fold serial dilutions of hIGF-I, hIGF-II or human insulin prepared by starting from 20 μg/ml was dispensed in 25 μl/well portions, mixed and allowed to react at room temperature for 1 hour. After the reaction and subsequent washing with Tween-PBS, 1,000 times-diluted peroxidase-labeled rabbit anti-rat Ig antibody (manufactured by DAKO) was added in 50 μl/well portions as the secondary antibody in the case of the anti-hIGF antibody KM1468. […] The results are represented by relative values (%) wherein OD415 when an antibody alone is added is defined as 100.

T2 sequence (P05019 49-118): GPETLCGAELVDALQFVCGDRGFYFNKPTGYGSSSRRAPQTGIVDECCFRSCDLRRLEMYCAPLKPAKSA
T1 sequence (P01344 25-91 limits assumed): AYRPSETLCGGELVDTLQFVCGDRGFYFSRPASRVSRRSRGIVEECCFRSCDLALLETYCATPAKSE
T13 sequence (P01308 25-54 limits assumed, chain 1 of 2): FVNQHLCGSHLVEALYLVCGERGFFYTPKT
T13 sequence (P01308 90-110 limits assumed, chain 2 of 2): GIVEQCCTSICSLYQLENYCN

B1: anti-hIGF rat monoclonal antibody KM1468 (antibody, V domains shown)
VH: EVHLVESGGGLVQPGRSLKLSCAASGFTFSNYYMTWVRQAPTKGLEWVAYISSGGGSTYYRDSVKGRFTISRDNAKSTLYLQMDSLRSEDTATYYCTTEDYGYWFAYWGQGTLVTVSS
VL: EIVLTQSPTTMAASPGEKVTITCRASSSVSYMHWFQQKSGTSPKPWIYGTSKLASGVPDRFSGSGSGTSYSLTISSMEAEDAATYYCLQRSSYPPTFGAGTKLELKR
notes: Rat IgG2b with kappa L chain, purified from ascites; The ranges 20-137 and 23-129 are counted from the first residue of the entry; also called anti-hIGF antibody KM1468; anti-hIGF rat antibody KM1468
[1]
  Ka: 8.63e+09 M⁻¹
[2]
  fold KA versus S1F2: ~3.6 fold
  fold KA versus sm1.2: ~120 fold
[3]
  fold KA versus S1F2: ~18 fold
  fold KA versus sm1.2: ~42 fold
[4]
  Ka: 7.86e+09 M⁻¹
[5]
  binding result: no binding
[6]
  binding result: no binding
[7]
  binding result: no binding
[8]
  binding result: no binding
[9]
  binding result: no binding
[10]
  binding result: no binding
[11]
  binding result: no binding
[12]
  binding result: no binding
[13]
  binding result: no binding
[14]
  binding result: no binding
[15]
  binding result: no binding
